Laboratory results reported in patent US20100204147A1, “Methods For Delivering Thymosin Beta 4, Analogues, Isoforms and Other Derivatives” (REGENERX BIOPHARMACEUTICALS, INC., priority 2003, published 2010).

Biological target: T1, recombinant γ-module (residues γ148-411) (Homo sapiens, UniProt P02679)
T1 construct: comprising residues 148-411 of the human fibrinogen γ chain; made in house; host or cells: E. coli, pET20b expression vector
T1 sequence (P02679 174-437 isoform P02679-2): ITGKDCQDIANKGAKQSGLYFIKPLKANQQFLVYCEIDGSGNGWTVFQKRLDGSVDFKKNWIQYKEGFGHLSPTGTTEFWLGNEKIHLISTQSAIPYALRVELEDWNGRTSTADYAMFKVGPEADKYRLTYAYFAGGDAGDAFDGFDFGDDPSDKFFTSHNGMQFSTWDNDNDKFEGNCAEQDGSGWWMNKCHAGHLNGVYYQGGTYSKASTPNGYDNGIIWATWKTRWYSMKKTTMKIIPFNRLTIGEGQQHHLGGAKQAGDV
Experiment: ELISA and kinetic analysis of incorporation into immobilized γ-module
Format: biochemical
Protocol: The interaction between thymosin β4 and fibrin(ogen) and its fragments in the presence or absence of FXIIIa was studies by ELISA using plastic microliter plates. Wells of microliter plates were coated overnight at […] with fibrinogen and fibrin at 10 μg/mL or with the recombinant fragments of 20 μg/ml, all in 0.1 M NaHCO3 buffer, pH 8.3. Fibrin was made by addition to the wells of a mixture containing 10 μg/mL fibrinogen 1 NIH u/ml thrombin and 400 u/ml aprotinin, followed by overnight incubation at +4° C. The wells were then blocked by incubation with Super Blocker (Pierce) at 37° C. for 1 h. Following washing with TBS containing 0.05% Tween-20 (TBS-Tween), the indicated concentrations of thymosin β4, FXIII, FXIIIa(Thr) and FXIIIa(Ca) were added to the wells and incubated for 2-2.5 h at 37° C. Bound (incorporated) thymosin β4 was detected by the reaction with rabbit anti-thymosin β4 serum and peroxidase-conjugated anti-rabbit IgG. A TMB Microwell Peroxidase Substrase was added to the wells, and the incorporated thymosin β4 was measured spectrophotometrically at 450 nm.
To analyze kinetics of the incorporation of thymosin β4 into different fibrin(ogen) fragments, they were immobilized onto the wells of microliter plates (as described above, except that the concentration of all fragments was 20 μg/mL) and incubated with several concentrations of thymosin β4 in the presence of 10 μg/L thrombin-activated factor XIIIa. The incubation mixtures were inhibited every 15 min during 1 hour of incubation by the addition of iodacetamide to final concentration 10 mM. Incorporated thymosin β4 at each time point was detected with rabbit anti-thymosin β4 serum as described above. The initial rates of the reaction of incorporation (V) at different concentrations of thymosin β4 were determined from the slopes of the reaction time course plots and expressed as tangent α=A450/t (min), where A450 represents absorbance at 450 nm in optical units (o.u) which is proportional to the amount of incorporated thymosin β4. […]

thymosin β4
non-covalent interaction with γ-module (ELISA) (non-activated factor XIII or without it): no significant non-covalent interaction | incorporation into immobilized γ-module (ELISA) (presence of factor XIIIa): incorporated effectively | Km (thrombin-activated factor XIIIa, Lineweaver-Burk plot, read-out: apparent Michaelis constant (Km) for incorporation into the γ-module): 183 ± 29 µM
